Laboratory results taken from the DeepSol protein solubility set.

assay: soluble on expression in E. coli; label from the status in PepcDB or PDB records

Sequence	soluble on expression in E. coli
MGSDKIHHHHHHMVSIRKSLLQFVFAGSYMKRWNDKLRPVELLEVDKQAHKMIVAWLLYQQNSDDLDDTSRLRLGSDIIEGGIFDYFYRLVITDIKPPVFYRIKDNAQHYAQLSAWVLDELEPLVQPLGEDFWGRMRGWVQRPEKNSRADRILDAAHLFASNWEFRLIESLNRFDDEIEDIGASFDAKLAGFDDLKGMDSLRHATGAVGRFAALCGQLRFQKRWSQTPRIPETSVLGHMFLVACYSYFFSLAVNACGARRQNNFFIGLFHDLPELLTRDIISPVKKSVEELDAVIKEYEEAELRRKVLNPLEEEGFGGIAARLSYYLGLEVGSEFTEAVVDNGNVLAVDFELLQSRYNHDRFDPRDGRMLKTCDTLAAFIEAYTAVRNGISSDQLQAALWRLRDKNRRTVIGPVHVGALFADFD	not soluble
MAHHHHHHMNKMKSTKIENPKYKLMKLIGKGTFGKVYSAIDMSTQEAVAIKRSPKWRNKVSREVDLLKKMNGSTNIVKIKSVFYTTTKKGYRIQNIVFKYMTYSLGRYIRMKKQEKRENNQICIGIKDLHKNDFAHRDLKPDNILIDLDSSNIKIEICDLGSAKKVQRNIISIPYICSRWYRAPELLCGSMFYTTEVDLWSLGCIIFELINLCPLFPGKFKKDEYSEECSQIINLIEVIGSPQMSFFENIKDHTSKKNTLLIKELCELNIKPLCWDEILGNILEIENPNERLNIDAVLSNPYFSTLNK	not soluble
MGRLDGKVIILTAAAQGIGQAAALAFAREGAKVIATDINESKLQELEKYPGIQTRVLDVTKKKQIDQFANEVERLDVLFNVAGFVHHGTVLDCEEKDWDFSMNLNVRSMYLMIKAFLPKMLAQKSGNIINMSSVASSVKGVVNRCVYSTTKAAVIGLTKSVAADFIQQGIRCNCVCPGTVDTPSLQERIQARGNPEEARNDFLKRQKTGRFATAEEIAMLCVYLASDESAYVTGNPVIIDGGWSLG	soluble
MGSDKIHHHHHHSLSGRAQTEKPSALVKVGDYRASTDFLNLSAYYQTIRPVTVKVAYVSTYKTQHTIMQKLTLPAGLTVAGNLTTTKHGSYLVPSLQLYLARLSYPALQNSAKANYTLDPGTSAYSPQATISDTTKLRAFKRVAAPDYMPGYSHGDLYIGGAKAALSPVEPTTKSIRITPDGYVEVLKYDTKANAGLGFYQKPVSLAKIVKTRFHDPNRTLYLNHPLASVKTKAITQNGQTRYRLTLKNLHTPQHIAGDPETGTAGTFDSLYSIGGTTYYTFIGYDGVSN	not soluble
SFGVIQKEERFNEVFLNYFKENKIEIAHAITKLFPFLESLRDHSFITDKIYADSYEACRNSVPIVKVVYNVLSHLERLSDSSFLWALFNRVNLKEYPALREIHKSLGTELQDRYSPQKCKQEEQKLATVHPSYEQGTNLCTHEKWAQPCFVKQDNLQEPEIQQNQVDEIIVISSESSECSDEDEEDQALGTGLRRQMNKEAEDSAPHRRSRT	soluble
MEDNRVEEDGEVKSDVGTSSDEKASDSEVEKRQRTDSERSGKDKKKKHKKEKKHKKDKKHKKEKKHKREKEVEMENDGPPAKKRTLEEVDTKKDESKKKEAKESSRNNEDELRNPPRRERSKSAERRDRELRERRDAERRDRSLSKERRLIQRKREDNRRDPRAHEGNRRRDRTPERFRNNRDRRDRDGRREDRHRRSPDRRRDSDRKREDGKRKDESKDVEWNLDSDSDDEQKKIEAARKRRIQIIKKIEGHTEENTPRDSSTPRSDTIGDKKTDESEDSSSDSEDDEDDRKLAEAKDLIKSTRFGSEQGSGASTPVSIQSDNDTPTDFFSGLRDKMVHMKDADEHNVDEVLQRGKDEEYREDWHTQLKEQEKREEEEKKKKLEAEAAAEAAKKKKQEEDDTGFDMFADNEELPQDSTTIDGHSGAVHDTLKDNWDDVEGYYRVRIGELLDTRYRVVGFTGAGVFGNVCRCNDQTKGNTVAVKIIRNNEVMYKTGLRELEVLRKLNEADKEDKYHCLRLFRTFKHHNHLCLVFENLSMNLRELLKKYGQKDGLHLKAVRSYAQQLLLALRLLKKLEFVHADIKPDNILVNESKLTLKLCDFGSAGRVNEQELAPYLVSRFYRAPEIMLGVRHDYAIDLWSVAVTLYEVYTGKIMFPGRTNNHMLKLFTDVKGKYPNKLVRKSQFKDTHFDVNCNLLYQEVDKVTERNKITVLANLKPTRDLESELIAGQRLSRDQMDQIQAFRTLLDGMLILDPSKRTTCNEALKHPFFTIPIK	soluble
MSEEIVLKAGGKIYQGWTKIGITRSLEAMSGAFDLEMTYKFLGNDAQYKAFIEPIKQGQACTVDIGGERVITGYVDDWVPSYDESTITISVSGRDKTADLVDCSIDYPSGQFNNQTLTQIADIVCKPFGIKVIVNTDVGEPFQRIQIEQGETPHELLARLAKQRGVLLTSDTFGNLVITRASKTKAGVSLILGDNVKAARGRFSWRQRFSKFTIKAAGAAHGQWDSAGLPTVGGIKADVTDSEIGRYRPLIIVNEEVTTAEGAAKRGQWERQRSIGKSNMAEYTVTGWRIPQTGKLWNINTLVPVIDEIMGLDEEMLIASILFSEDDAGRLAVISVVRPDAMDIPAQIVKDTKLGGSTW	soluble
VLFRQLEYFVAVAQERHFARAAEKCYVSQPALSSAIAKLERELNVTLINRGHSFEGLTREGERLVVWAKRILAEHAAFKAEVDAVRSGITGTLRLGTVPTASTTASLVLSAFCSAHPLAKVQVCSRLAATELYRRLREFELDAVIVHPETQDSDDVDLVPLYEEQYVLLSPADMLPPGTSTLVWRDAAQLPLALLTADMRDRQVIDAAFADHAVSAIPQVETDSVASLFAQVATGNWASIVPHTWLWAMPMSGPTGGEIRAVELVDPVLKAQIALATNALGPGSPVARALITCAQALALNEFFDTQLRGITRRR	not soluble
MGSDKIHHHHHHMSNNHKDSTINLYNHTASDWIRGEPSSLSDFTARPSVLELCEPVSGLRVVDIGCGEGYCSRELHRRGAAQVYGIDLSQGMIEAAKLQEVEHPLSISYEVGCATNLKRFDDSEIDLVVAVFLFNYLTISQTQECMAEVARILRPGGRFVFSVPHPSFPYMREAAYPFYFQVEGAGYFSNRDQQFPGRIWKRDGSWLNVQLIHKTLEDYFNALRIAGFNTMPILQELRVTSEHIAVDKSFFSPLLDQPLHLALQILR	not soluble
MGSDKIHHHHHHMSKEIDIEYYHQLALQKQKEHRKVLANLKKKPPKNLDKIAQQIHQEVFEEIDCTACANCCKTLGPDFKEADITRIAKYFKMKLPAFEAEFLQVDADGDKVFKSMPCPFLGGDNLCSIYDVRPKACREFPHTDRKKIHQINHLTIKNTLTCPAAYLFVEKLKDKL	not soluble
MCGDCVEKEYPNRGNTCLENGSFLLNFTGCAVCSKRDFMLITNKSLKEEDGEEIVTYDPDLCKNCHHVIARHEYTFSIMDEFQEYTMLCLLCAKPKILSVFSLMTPDKLEHHHHHH	soluble
GSMAWHLGIRSQSRPNDIMAEVCRAIKQLDYEWKVVNPYYLRVRRKNPVTSTFSKMSLQLYQVDSRTYLLDFRSIDDEITEAKSGTATPQRSGSISNYRSCQRSDSDAEAQGKPSEVSLTSSVTSLDSSPVDVAPRPGSHTIEFFEMCANLIKILAQ	soluble
MESQVRQNFHQDCEAGLNRTVNLKFHSSYVYLSMASYFNRDDVALSNFAKFFRERSEEEKEHAEKLIEYQNQRGGRVFLQSVEKPERDDWANGLEALQTALKLQKSVNQALLDLHAVAADKSDPHMTDFLESPYLSESVETIKKLGDHITSLKKLWSSHPGMAEYLFNKHTLG	soluble
MGSDKIHHHHHHMRLVLEEPFKRLWNGRDPFEAVEALQGKVYRELEGRRTLRTEVDGRGYFVKIHRGIGWGEIAKNLLTAKLPVLGARQEWQAIRRLHEAGVATMTAVAYGERGSDPARQHSFIVTEELAPTVDLEVFSQDWRERPPPPRLKRALVEAVARMVGDMHRAGVNHRDCYICHFLLHTDKPVSADDFRLSVIDLHRAQTRDATPKRWRNKDLAALYFSALDIGLTRRDKLRFLRTYFRRPLREILRDEAGLLAWMERKAEKLYERKQRYGDLL	not soluble
GMDKQAILDNIHQTWQEEANAISRLPEVTSEEALVKTVEKIAECTGKIVVAGCGTSGVAAKKLVHSFNCIERPAVFLTPSDAVHGTLGVLQKEDILILISKGGNTGELLNLIPACKTKGSTLIGVTENPDSVIAKEADIFFPVSVSKEPDPFNMLATASTMAVIASFDAVIVCLMTYMNYTKEQFSVIHPGGAVGNKLLNK	soluble
